Source: patent US20220291215A1

Key:
[1] = target: memory CD4+ T cells from DP4+ donors, unstimulated (a small subset; their TCRs); experiment: flow cytometry ex vivo; 80783 evts in the dimer- CD4+ gate
[2] = target: memory CD4+ T cells from DP4+ donors, unstimulated (a small subset; their TCRs); experiment: flow cytometry ex vivo; 122665 evts in the dimer- CD4+ gate
[3] = target: memory CD4+ T cells from DP4+ donors, unstimulated (a small subset; their TCRs); experiment: flow cytometry ex vivo; 160045 evts in the dimer- CD4+ gate
[4] = target: memory CD4+ T cells from DP4+ donors, unstimulated (a small subset; their TCRs); experiment: flow cytometry ex vivo; 71402 evts in the dimer- CD4+ gate
[5] = target: memory CD4+ T cells from DP4+ donors, unstimulated (a small subset; their TCRs); experiment: flow cytometry ex vivo; 50227 evts in the dimer- CD4+ gate
[6] = target: DQ6 (DQA1*01:02-DQB1*06:02)-restricted influenza virus HA-specific TCR (DM2); experiment: flow cytometry, TCR-transduced primary T cells
[7] = target: memory CD4+ T cells from DP4+ donors, unstimulated (a small subset; their TCRs); experiment: flow cytometry ex vivo; 49894 evts in the dimer- CD4+ gate
[8] = target: memory CD4+ T cells from DP4+ donors, unstimulated (a small subset; their TCRs); experiment: flow cytometry ex vivo; 82428 evts in the dimer- CD4+ gate
[9] = target: memory CD4+ T cells from DP4+ donors, unstimulated (a small subset; their TCRs); experiment: flow cytometry ex vivo; 159441 evts in the dimer- CD4+ gate
[10] = target: memory CD4+ T cells from DP4+ donors, unstimulated (a small subset; their TCRs); experiment: flow cytometry ex vivo; 122436 evts in the dimer- CD4+ gate
[11] = target: memory CD4+ T cells from DP4+ donors, unstimulated (a small subset; their TCRs); experiment: flow cytometry ex vivo; 73637 evts in the dimer- CD4+ gate

DP4^L112W/V141M dimer loaded with respiratory syncytial virus glycoprotein162-175 (RSV-GP162-175) (peptide-MHC)
events in the dimer+ CD4+ gate [1]: 4 evts | events in the dimer+ CD4+ gate [2]: 10 evts | events in the dimer+ CD4+ gate [3]: 37 evts | events in the dimer+ CD4+ gate [4]: 25 evts | events in the dimer+ CD4+ gate [5]: 1 evts

DR1 dextramer (PE), Flu-HA306-318 (peptide-MHC)
percent multimer-positive CD4+ cells (number at the gate) (DR1-restricted TCR HA1.7): 30.4%

Control (DQ6^L114W/V143M+3reps dimer) (peptide-MHC)
% dimer+ CD4+ cells [6]: 0.1%

DP4^L112W/V141M dimer loaded with herpes simplex virus type-2-UL21283-302 (HSV-2-UL21283-302) (peptide-MHC)
events in the dimer+ CD4+ gate [7]: 1 evts | events in the dimer+ CD4+ gate [8]: 1 evts | events in the dimer+ CD4+ gate [9]: 1 evts | events in the dimer+ CD4+ gate [10]: 6 evts | events in the dimer+ CD4+ gate [11]: 8 evts
